Test results from paper PMC10275983 (2023).
No end group written: not given here.

Columns and labels:
Assay in all cases: SPR
[1] = target: S1 (Novus Biologicals NBP2-90985) (SARS-CoV-2, UniProt P0DTC2 14-685)
[2] = target: S1-NTD (ACROBiosystems S1D-C52H6) (SARS-CoV-2 (Wuhan-Hu-1 strain))
[3] = target: S1-RBD (ACROBiosystems SPD-C82E9) (SARS-CoV-2 (Wuhan-Hu-1 strain), UniProt P0DTC2 319-541)
[4] = target: S2 (ACROBiosystems S2N-C52E8) (SARS-CoV-2 (Wuhan-Hu-1 strain), UniProt P0DTC2 14-1273)

B1: E4 Bicycle (exemplar of epitope group 4) (peptide)
peptide: ACIPLDWTCMIACA
modifications: not fully specified (bridges); also: bicyclic peptide, scaffold not named
Kd [1]: 2.9 µM | Kd [2]: 0.44 µM

B2: E1 Bicycle (exemplar of epitope group 1) (peptide)
peptide: ACEYVGPMCYRLYCA
modifications: not fully specified (bridges); also: Bicycle
Kd [1]: 5.1 µM | Kd [3]: 3.6 µM

B3: E12 Bicycle (exemplar of epitope group 12) (peptide)
peptide: ACSSKFCDAWWNFNRCA
modifications: not fully specified (bridges); also: Bicycle
Kd [4]: 0.81 µM

B4: E9 Bicycle (exemplar of epitope group 9) (peptide)
peptide: ACMNPFFYDCETVCA
modifications: not fully specified (bridges); also: bicyclic peptide, scaffold not named
Kd [1]: 3.8 µM | Kd [3]: 4.1 µM

B5: E6 Bicycle (exemplar of epitope group 6) (peptide)
peptide: ACDHYHCPWLALGGSCA
modifications: not fully specified (bridges); also: bicyclic peptide, scaffold not given here
Kd [2]: 3.9 µM

B6: E7 Bicycle (exemplar of epitope group 7) (peptide)
peptide: ACINPYCEHHIYLEHCA
modifications: not fully specified (bridges); also: bicyclic peptide, scaffold not given here
Kd [2]: 4 µM

B7: E2 Bicycle (canonical exemplar of epitope group 2) (peptide)
peptide: ACPYVAGRGTCLLCA
modifications: not fully specified (bridges); also: Bicycle
Kd [1]: 0.83 µM | Kd [3]: 0.65 µM

B8: E5 Bicycle (canonical exemplar of epitope group 5) (peptide)
peptide: ACANPDNPVCRFYCA
modifications: not fully specified (bridges); also: bicyclic peptide, scaffold not named
Kd [1]: 0.024 µM

B9: E11 Bicycle (exemplar of epitope group 11) (peptide)
peptide: ACFPEPWLGLCTPCA
modifications: not fully specified (bridges); also: Bicycle
Kd [4]: 0.53 µM

B10: E3 Bicycle (exemplar of epitope group 3) (peptide)
peptide: ACEDNDWVYCSTCA
modifications: not fully specified (bridges); also: Bicycle
Kd [1]: 2.5 µM | Kd [3]: 2.3 µM
